According to article PMC3734299, “Farnesyl Phosphatase, a Corpora allata Enzyme Involved in Juvenile Hormone Biosynthesis in Aedes aegypti” (PLoS ONE, 2013):

Assays:
[1] = target: T1, AaFPPase-2 (Aedes aegypti, UniProt Q0IF21); assay: p-NPP phosphatase assay, inhibition; assay type: biochemical; conditions: inhibitor 0 to 40 µM, 10 min pre-incubation
T1 construct: gene 5568744; His-tagged, expressed in E. coli, purified on HiTrap chelating and PD-10 columns, ~35 kDa
T1 sequence (Q0IF21 1-315): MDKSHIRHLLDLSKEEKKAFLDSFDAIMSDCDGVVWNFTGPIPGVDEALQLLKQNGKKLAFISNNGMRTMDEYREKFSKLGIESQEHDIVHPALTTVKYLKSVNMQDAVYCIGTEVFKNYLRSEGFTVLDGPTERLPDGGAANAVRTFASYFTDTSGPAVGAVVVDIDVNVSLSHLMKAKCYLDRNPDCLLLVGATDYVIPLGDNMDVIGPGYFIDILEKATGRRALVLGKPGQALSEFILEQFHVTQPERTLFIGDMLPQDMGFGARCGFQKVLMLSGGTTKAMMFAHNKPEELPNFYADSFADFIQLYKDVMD

[2] = test system: T2, AaFPPase-1; assay: malachite green phosphate release; assay type: biochemical, Aedes aegypti; conditions: 100 mM MES pH 6.0, 2 mM MgCl2, 37 °C; read-out: Km μM ±SE
T2 construct: His-tagged, expressed in E. coli, purified on HiTrap chelating and PD-10 columns, ~35 kDa
Text: malachite green phosphate release on AaFPPase-1

[3] = target: T1, AaFPPase-2; assay: malachite green phosphate release; assay type: biochemical; conditions: 100 mM MES pH 6.0, 2 mM MgCl2, 37 °C; read-out: Km μM ±SE
[4] = test system: T2, AaFPPase-1; assay: p-NPP phosphatase assay, 96-well plate; assay type: biochemical, Aedes aegypti; conditions: Mg2+ cofactor; optimum pH 6.0
[5] = substrate: CC(C)=CCC/C(C)=C/CC/C(C)=C/CO[P@@](=O)(O)OP(=O)(O)O; assay: malachite green phosphate release; assay type: biochemical, Aedes aegypti; conditions: 100 mM MES pH 6.0, 2 mM MgCl2, 37 °C
[6] = substrate: CC(C)=CCC/C(C)=C/COP(=O)(O)OP(=O)(O)O; assay: malachite green phosphate release; assay type: biochemical, Aedes aegypti; conditions: 100 mM MES pH 6.0, 2 mM MgCl2, 37 °C
[7] = substrate: O=[N+]([O-])c1ccc(OP(=O)(O)O)cc1; assay: p-NPP phosphatase assay, 96-well plate; assay type: biochemical, Aedes aegypti; conditions: Mg2+ cofactor, optimum pH 6.0

Molecule: CC(=O)N[C@@H](CSC/C=C(\C)CC/C=C(\C)CC/C=C(\C)CCC=C(C)C)C(=O)O [AGGC]
- inhibition [1]: AGGC was a potent inhibitor of AaFPPase-1 and AaFPPase-2 (Figure S3)

Molecule: C=C(C)CCO[P@@](=O)(O)OP(=O)(O)O [IPP]
- Km [2]: > 900 µM
- Km [3]: > 900 µM

Molecule: CC(C)=CCC/C(C)=C/CC/C(C)=C/COP(=O)(O)OP(=O)(O)O [FPP]
- Km [2]: 222 ± 11 µM

Molecule: O=[N+]([O-])c1ccc(OP(=O)(O)O)cc1 [p-NPP]
- Km [4]: 3960 ± 127 µM

Molecule: CC(C)=CCC/C(C)=C/COP(=O)(O)OP(=O)(O)O [GPP]
- Km [2]: 184 ± 14.2 µM

B1: AaFPPase-2 (Aedes aegypti) (protein)
chain: T1 sequence (Q0IF21 1-315)
notes: His-tagged, expressed in E. coli, purified on HiTrap chelating and PD-10 columns, ~35 kDa
- Km [5]: 221.02 ± 15.62 µM
- Vmax [5]: 5.77 µmol/min/mg
- kcat [5]: 2.98 s⁻¹
- kcat/Km [5]: 13200 M⁻¹ s⁻¹
- Km [6]: 273.98 ± 2.52 µM
- Vmax [6]: 28.3 µmol/min/mg
- kcat [6]: 17.5 s⁻¹
- kcat/Km [6]: 63000 M⁻¹ s⁻¹
- Km [7]: 315.5 ± 46.9 µM
